# B1: Protein PTHB1 (Homo sapiens), Q3SYG4 (parent)
# chain: MSLFKARDWWSTILGDKEEFDQGCLCLANVDNSGNGQDKIIVGSFMGYLRIFSPHPAKTGDGAQAEDLLLEVDLRDPVLQVEVGKFVSGTEMLHLAVLHSRKLCVYSVSGTLGNVEHGNQCQMKLMYEHNLQRTACNMTYGSFGGVKGRDLICIQSMDGMLMVFEQESYAFGRFLPGFLLPGPLAYSSRTDSFLTVSSCQQVESYKYQVLAFATDADKRQETEQQKLGSGKRLVVDWTLNIGEQALDICIVSFNQSASSVFVLGERNFFCLKDNGQIRFMKKLDWSPSCFLPYCSVSEGTINTLIGNHNNMLHIYQDVTLKWATQLPHIPVAVRVGCLHDLKGVIVTLSDDGHLQCSYLGTDPSLFQAPNVQSRELNYDELDVEMKELQKIIKDVNKSQGVWPMTEREDDLNVSVVVSPNFDSVSQATDVEVGTDLVPSVTVKVTLQNRVILQKAKLSVYVQPPLELTCDQFTFEFMTPDLTRTVSFSVYLKRSYTPSELEGNAVVSYSRPTDRNPDGIPRVIQCKFRLPLKLICLPGQPSKTASHKITIDTNKSPVSLLSLFPGFASQSDDDQVNVMGFHFLGGARITVLASKTSQRYRIQSEQFEDLWLITNELILRLQEYFEKQGVKDFACSFSGSIPLQEYFELIDHHFELRINGEKLEELLSERAVQFRAIQRRLLARFKDKTPAPLQHLDTLLDGTYKQVIALADAVEENQGNLFQSFTRLKSATHLVILLIALWQKLSADQVAILEAAFLPLQEDTQELGWEETVDAAISHLLKTCLSKSSKEQALNLNSQLNIPKDTSQLKKHITLLCDRLSKGGRLCLSTDAAAPQTMVMPGGCTTIPESDLEERSVEQDSTELFTNHRHLTAETPRPEVSPLQGVSE
# partner: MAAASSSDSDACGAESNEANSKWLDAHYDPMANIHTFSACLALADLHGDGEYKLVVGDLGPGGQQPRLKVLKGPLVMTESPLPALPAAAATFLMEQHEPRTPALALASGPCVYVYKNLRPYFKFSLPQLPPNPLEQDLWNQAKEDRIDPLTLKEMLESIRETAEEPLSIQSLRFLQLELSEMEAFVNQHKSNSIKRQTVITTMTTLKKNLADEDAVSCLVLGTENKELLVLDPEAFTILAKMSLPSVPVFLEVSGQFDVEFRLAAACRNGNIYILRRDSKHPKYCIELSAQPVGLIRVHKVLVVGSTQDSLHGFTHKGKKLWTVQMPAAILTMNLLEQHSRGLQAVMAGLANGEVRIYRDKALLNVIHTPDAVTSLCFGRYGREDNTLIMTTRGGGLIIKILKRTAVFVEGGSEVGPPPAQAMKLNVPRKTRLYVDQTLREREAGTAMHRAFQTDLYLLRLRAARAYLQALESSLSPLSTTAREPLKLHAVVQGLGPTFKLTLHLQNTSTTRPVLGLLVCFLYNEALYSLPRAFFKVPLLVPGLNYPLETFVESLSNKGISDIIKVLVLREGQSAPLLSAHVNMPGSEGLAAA
# Variants of: B1
# Conditions: with bbs1_human BBS1, Q8NFJ9
row,effect of a mutation on the interaction,Variant
1,with no effect,T595E
2,with no effect,T595K
3,with no effect,P875E
4,with no effect,E862K
5,with no effect,D608E
6,with no effect,E406K
7,with no effect,E406A
8,with no effect,A833K
9,with no effect,C535A
10,with no effect,L562A
11,disrupting interaction strength,L562F
12,with no effect,L799E
13,with no effect,E647K
14,with no effect,A427K
15,with no effect,S439K
16,with no effect,P691E
17,with no effect,T702E
18,with no effect,S886E
19,with no effect,E715K
20,with no effect,E715A
21,with no effect,D480E
22,with no effect,T845E
23,with no effect,P641E
24,with no effect,D762A

row,effect of a mutation on the interaction,Variant
1,with no effect,S555K
2,with no effect,L752E
3,with no effect,E853A
4,with no effect,P689E
5,with no effect,Q643A
6,with no effect,Q643E
7,with no effect,Q643K
8,with no effect,L870K
9,with no effect,E878K
10,with no effect,G433K
11,with no effect,Y495E
12,with no effect,G884A
13,with no effect,H694E
14,with no effect,S494E
15,with no effect,K809A
16,with no effect,F472A
17,with no effect,S729E
18,with no effect,L698A
19,with no effect,H778A
20,with no effect,T543E
21,with no effect,R449K
22,with no effect,T871K
23,with no effect,E769K
24,with no effect,T836E

row,effect of a mutation on the interaction,Variant
1,with no effect,T836A
2,with no effect,Q722E
3,with no effect,L825A
4,with no effect,L757A
5,with no effect,V416E
6,with no effect,A750K
7,with no effect,S667K
8,with no effect,H652K
9,with no effect,H652E
10,with no effect,P516A
11,with no effect,M839K
12,with no effect,T613A
13,with no effect,E765A
14,disrupting interaction strength,L616F
15,with no effect,P419A
16,with no effect,T445A
17,with no effect,N553K
18,with no effect,T805K
19,with no effect,K781E
20,with no effect,L819A
21,with no effect,D700A
22,with no effect,P540K
23,with no effect,K810E
24,with no effect,K810A

row,effect of a mutation on the interaction,Variant
1,with no effect,N866K
2,with no effect,H546E
3,with no effect,T865E
4,with no effect,F582E
5,with no effect,F582A
6,with no effect,N515K
7,with no effect,A746E
8,with no effect,V417A
9,with no effect,S561K
10,with no effect,K687A
11,with no effect,S414A
12,with no effect,S545E
13,with no effect,S545A
14,with no effect,D435A
15,with no effect,T771A
16,with no effect,V706E
17,disrupting interaction strength,E622K
18,with no effect,L465E
19,with no effect,H651E
20,with no effect,T589E
21,with no effect,S745A
22,with no effect,R683K
23,with no effect,R683A
24,with no effect,P847E

row,effect of a mutation on the interaction,Variant
1,with no effect,S777E
2,with no effect,E873K
3,with no effect,S787A
4,with no effect,K626E
5,with no effect,I550A
6,with no effect,I550K
7,with no effect,N576K
8,with no effect,S488K
9,with no effect,S637E
10,with no effect,T441E
11,with no effect,L744E
12,with no effect,L481E
13,disrupting interaction strength,R598S
14,with no effect,L709K
15,with no effect,E499A
16,with no effect,G701A
17,with no effect,G701K
18,with no effect,C634A
19,with no effect,L611A
20,with no effect,S797A
21,with no effect,N800E
22,with no effect,A754E
23,with no effect,D650K
24,with no effect,S425A

row,effect of a mutation on the interaction,Variant
1,with no effect,F646K
2,with no effect,S635E
3,with no effect,T405A
4,with no effect,N420K
5,disrupting interaction strength,C469Y
6,with no effect,H867A
7,with no effect,H867K
8,with no effect,H867E
9,with no effect,D850E
10,with no effect,M477A
11,with no effect,N794K
12,with no effect,I523E
13,with no effect,A831K
14,with no effect,S509K
15,with no effect,L882A
16,with no effect,M837K
17,with no effect,Y645E
18,with no effect,V450E
19,with no effect,L851A
20,with no effect,E475A
21,with no effect,A567K
22,with no effect,V590K
23,with no effect,S568A
24,with no effect,Y623E

row,effect of a mutation on the interaction,Variant
1,with no effect,N503E
2,with no effect,Q447K
3,with no effect,I801E
4,with no effect,L560K
5,with no effect,G822K
6,with no effect,C783E
7,with no effect,L531A
8,with no effect,P556A
9,with no effect,P556E
10,with no effect,T725K
11,with no effect,C525A
12,with no effect,S570K
13,with no effect,P758K
14,with no effect,D470K
15,with no effect,K542E
16,with no effect,S860A
17,with no effect,F563A
18,with no effect,Q597E
19,with no effect,T782E
20,with no effect,Y703E
21,with no effect,L736E
22,with no effect,T552E
23,with no effect,L863K
24,with no effect,V437K

row,effect of a mutation on the interaction,Variant
1,with no effect,T844K
2,with no effect,R493A
3,with no effect,T482A
4,with no effect,K704E
5,with no effect,R407E
6,with no effect,S423K
7,with no effect,L467K
8,with no effect,L467A
9,with no effect,D804K
10,with no effect,W768A
11,with no effect,K661E
12,with no effect,G518E
13,with no effect,V879A
14,with no effect,A682E
15,with no effect,D859E
16,with no effect,D830A
17,with no effect,Q764E

# From IntAct's records for PubMed 29039417
